Biological target: recombinant human FOXO3a (human, UniProt O43524 1-673)
Experiment: pull-down

Chain of recombinant human FOXO3a (O43524 whole entry): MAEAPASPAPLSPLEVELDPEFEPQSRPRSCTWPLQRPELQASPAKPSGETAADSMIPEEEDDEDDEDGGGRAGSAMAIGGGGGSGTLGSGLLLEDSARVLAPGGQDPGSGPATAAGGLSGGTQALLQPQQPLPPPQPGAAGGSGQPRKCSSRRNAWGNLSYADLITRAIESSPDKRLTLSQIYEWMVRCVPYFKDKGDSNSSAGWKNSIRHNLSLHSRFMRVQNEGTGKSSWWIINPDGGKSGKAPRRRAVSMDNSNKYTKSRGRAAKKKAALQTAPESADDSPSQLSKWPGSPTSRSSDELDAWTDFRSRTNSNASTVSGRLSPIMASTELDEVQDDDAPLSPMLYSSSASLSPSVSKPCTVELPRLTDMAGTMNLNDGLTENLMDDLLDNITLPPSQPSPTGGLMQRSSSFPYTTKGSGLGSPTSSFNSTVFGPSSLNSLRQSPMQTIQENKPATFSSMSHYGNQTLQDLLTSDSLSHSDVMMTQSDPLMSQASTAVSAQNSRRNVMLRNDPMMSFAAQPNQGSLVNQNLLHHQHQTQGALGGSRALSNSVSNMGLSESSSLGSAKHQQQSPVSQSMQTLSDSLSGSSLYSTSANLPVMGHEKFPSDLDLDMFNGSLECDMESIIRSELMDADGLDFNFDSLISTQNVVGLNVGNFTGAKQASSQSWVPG

B1: GST-ATM fragment spanning 2,842–3,056 aa (domain or fragment)
chain: PAIWFEKRLAYTRSVATSSIVGYILGLGDRHVQNILINEQSAELVHIDLGVAFEQGKILPTPETVPFRLTRDIVDGMGITGVEGVFRRCCEKTMEVMRNSQETLLTIVEVLLYDPLFDWTMNPLKALYLQQRPEDETELHPTLNADDQECKRNLSDIDQSFNKVAERVLMRLQEKLKGVEEGTVLSVGGQVNLLIQQAIDPKNLSRLFPGWKAWV
  binding result: binds
